Measured values: paper PMC9352680, “A comprehensive thermodynamic model for RNA binding by the Saccharomyces cerevisiae Pumilio protein PUF4”

Target: T1, PUF4 RNA-binding domain (Saccharomyces cerevisiae, UniProt P25339 537-888)
T1 sequence: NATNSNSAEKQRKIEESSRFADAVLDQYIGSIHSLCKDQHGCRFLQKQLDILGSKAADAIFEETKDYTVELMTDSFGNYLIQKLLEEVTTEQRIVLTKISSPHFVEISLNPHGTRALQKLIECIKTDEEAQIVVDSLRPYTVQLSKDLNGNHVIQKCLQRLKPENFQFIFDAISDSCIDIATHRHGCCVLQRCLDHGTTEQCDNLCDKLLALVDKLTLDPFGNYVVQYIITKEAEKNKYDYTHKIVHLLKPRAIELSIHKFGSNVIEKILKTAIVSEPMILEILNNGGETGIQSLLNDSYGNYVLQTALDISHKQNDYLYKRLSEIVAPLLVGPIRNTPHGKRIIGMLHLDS
Assay: Mg; RNA-MaP; 20 mM Na-HEPES pH 7.4, 30 mM KOAc, 0.75 mM MgCl2, 0.1% Tween-20, 5% glycerol, 0.1 mg/mL BSA, 2 mM DTT; 25 C; 0.0125-409.6 nM protein
Conditions: tags: N-His6-TEV cleaved; C-SNAP kept, Cy3B-labelled; label: tethered on chip by stalled RNA polymerase

## UCUCUUUGCAUAUAAUCUCUU (ssRNA) [Ib_S1_P4E.1_K4.1_C4.1_H4.1_[T3C]_A4.1_F4.1_[T8A]_T4.1]
  Kd: > 2300 nM

## UCUCUUUGUUUAUCAUCUCUU (ssRNA) [Ib_S1_P4E.1_K4.1_C4.1_H4.1_[A4T]_A4.1_F4.1_[T8C]_T4.1]
  Kd: 917 nM

## UCUCUUUGUGUAUCAUCUCUU (ssRNA) [Ib_S1_P4E.1_K4.1_C4.1_H4.1_[A4G]_A4.1_F4.1_[T8C]_T4.1]
  Kd: 30.1 nM

B1: Ic_S2_P5E.1_K5.1_C5.1_H5.1_A5.1_[T5G]_[T6C]_[A7T]_F5.1_[A10T]_T5.1 (ssRNA)
RNA: UUUGAUUAAUAUGAUAUCGUUCUUUCUUGUAGCUUUUUUCUUUCUCGAUAUCAUAUUAAUCUUU
  Kd: 37.5 nM

B2: Ic_S2_P5E.1_K5.1_C5.1_H5.1_A5.1_[T6A]_[A7C]_F5.1_[T8C]_[T9A]_[A10C]_T5.1 (ssRNA)
RNA: UUUGAUUAAUAUGAUAUCGUUCUUUCUUGUAUACCACUUCUUUCUCGAUAUCAUAUUAAUCUUU
  Kd: 31.2 nM

B3: Ic_S2_P5E.1_K5.1_C5.1_H5.1_A5.1_[T5A]_[T6A]_F5.1_[A10T]_T5.1 (ssRNA)
RNA: UUUGAUUAAUAUGAUAUCGUUCUUUCUUGUAAAAUUUUUCUUUCUCGAUAUCAUAUUAAUCUUU
  Kd: 53.3 nM

B4: Ic_S2_P5E.1_K5.1_C5.1_H5.1_A5.1_[A7T]_F5.1_[T9C]_[A10G]_T5.1 (ssRNA)
RNA: UUUGAUUAAUAUGAUAUCGUUCUUUCUUGUAUUUUCGUUCUUUCUCGAUAUCAUAUUAAUCUUU
  Kd: 42.9 nM

B5: Ic_S2_P5E.1_K5.1_C5.1_H5.1_A5.1_[T5G]_[T6C]_F5.1_[T8A]_[T9A]_[A10C]_T5.1 (ssRNA)
RNA: UUUGAUUAAUAUGAUAUCGUUCUUUCUUGUAGCAAACUUCUUUCUCGAUAUCAUAUUAAUCUUU
  Kd: 653 nM

B6: Ic_S2_P5E.1_K5.1_C5.1_H5.1_A5.1_[T5C]_[T6G]_[A7T]_F5.1_[T8G]_[T9G]_[A10T]_T5.1 (ssRNA)
RNA: UUUGAUUAAUAUGAUAUCGUUCUUUCUUGUACGUGGUUUCUUUCUCGAUAUCAUAUUAAUCUUU
  Kd: 211 nM

B7: Ic_S2_P5E.1_K5.1_C5.1_H5.1_A5.1_[T5C]_[T6G]_[A7T]_F5.1_[T9G]_[A10T]_T5.1 (ssRNA)
RNA: UUUGAUUAAUAUGAUAUCGUUCUUUCUUGUACGUUGUUUCUUUCUCGAUAUCAUAUUAAUCUUU
  Kd: 31.8 nM

B8: Ic_S2_P5E.1_K5.1_C5.1_H5.1_A5.1_[A7T]_F5.1_[T8A]_[A10G]_T5.1 (ssRNA)
RNA: UUUGAUUAAUAUGAUAUCGUUCUUUCUUGUAUUUAUGUUCUUUCUCGAUAUCAUAUUAAUCUUU
  Kd: 15.8 nM

B9: Ic_S2_P5E.1_K5.1_C5.1_H5.1_A5.1_[T5G]_[T6C]_F5.1_[T8G]_[T9C]_[A10T]_T5.1 (ssRNA)
RNA: UUUGAUUAAUAUGAUAUCGUUCUUUCUUGUAGCAGCUUUCUUUCUCGAUAUCAUAUUAAUCUUU
  Kd: 905 nM

B10: Ic_S2_P5E.1_K5.1_C5.1_H5.1_A5.1_[T5G]_[T6C]_[A7C]_F5.1_[T9A]_[A10T]_T5.1 (ssRNA)
RNA: UUUGAUUAAUAUGAUAUCGUUCUUUCUUGUAGCCUAUUUCUUUCUCGAUAUCAUAUUAAUCUUU
  Kd: 4.62 nM

B11: Ic_S2_P5E.1_K5.1_C5.1_H5.1_A5.1_[T5G]_[A7T]_F5.1_[T8C]_[T9C]_[A10T]_T5.1 (ssRNA)
RNA: UUUGAUUAAUAUGAUAUCGUUCUUUCUUGUAGUUCCUUUCUUUCUCGAUAUCAUAUUAAUCUUU
  Kd: 175 nM

B12: Ic_S2_P5E.1_K5.1_C5.1_H5.1_A5.1_[T6A]_[A7C]_F5.1_[T9A]_[A10C]_T5.1 (ssRNA)
RNA: UUUGAUUAAUAUGAUAUCGUUCUUUCUUGUAUACUACUUCUUUCUCGAUAUCAUAUUAAUCUUU
  Kd: 1.15 nM

B13: Ic_S2_P5E.1_K5.1_C5.1_H5.1_A5.1_[T5C]_[T6A]_[A7C]_F5.1_[T8C]_[T9A]_[A10T]_T5.1 (ssRNA)
RNA: UUUGAUUAAUAUGAUAUCGUUCUUUCUUGUACACCAUUUCUUUCUCGAUAUCAUAUUAAUCUUU
  Kd: 14.9 nM

B14: Ic_S2_P5E.1_K5.1_C5.1_H5.1_A5.1_[T5C]_[T6A]_[A7C]_F5.1_[T9C]_T5.1 (ssRNA)
RNA: UUUGAUUAAUAUGAUAUCGUUCUUUCUUGUACACUCAUUCUUUCUCGAUAUCAUAUUAAUCUUU
  Kd: 7.78 nM

B15: Ic_S2_P5E.1_K5.1_C5.1_H5.1_A5.1_[T6G]_[A7T]_F5.1_[T8C]_[T9C]_[A10T]_T5.1 (ssRNA)
RNA: UUUGAUUAAUAUGAUAUCGUUCUUUCUUGUAUGUCCUUUCUUUCUCGAUAUCAUAUUAAUCUUU
  Kd: 21.6 nM

B16: Ic_S2_P5E.1_K5.1_C5.1_H5.1_A5.1_[T5A]_[T6A]_[A7C]_F5.1_[T8G]_[T9C]_[A10C]_T5.1 (ssRNA)
RNA: UUUGAUUAAUAUGAUAUCGUUCUUUCUUGUAAACGCCUUCUUUCUCGAUAUCAUAUUAAUCUUU
  Kd: 611 nM

B17: Ic_S2_P5E.1_K5.1_C5.1_H5.1_A5.1_[T5C]_F5.1_[T8C]_[T9G]_[A10C]_T5.1 (ssRNA)
RNA: UUUGAUUAAUAUGAUAUCGUUCUUUCUUGUACUACGCUUCUUUCUCGAUAUCAUAUUAAUCUUU
  Kd: 641 nM

B18: Ic_S2_P5E.1_K5.1_C5.1_H5.1_A5.1_[T5C]_[T6A]_[A7T]_F5.1_[T8G]_T5.1 (ssRNA)
RNA: UUUGAUUAAUAUGAUAUCGUUCUUUCUUGUACAUGUAUUCUUUCUCGAUAUCAUAUUAAUCUUU
  Kd: 2.58 nM

B19: Ic_S2_P5E.1_K5.1_C5.1_H5.1_A5.1_[T5A]_F5.1_[T9A]_[A10T]_T5.1 (ssRNA)
RNA: UUUGAUUAAUAUGAUAUCGUUCUUUCUUGUAAUAUAUUUCUUUCUCGAUAUCAUAUUAAUCUUU
  Kd: 1.32 nM

B20: Ic_S2_P5E.1_K5.1_C5.1_H5.1_A5.1_[T6A]_[A7C]_F5.1_[T8C]_[T9A]_[A10T]_T5.1 (ssRNA)
RNA: UUUGAUUAAUAUGAUAUCGUUCUUUCUUGUAUACCAUUUCUUUCUCGAUAUCAUAUUAAUCUUU
  Kd: 13.7 nM
